The supplement of paper PMC10567573
± gives the standard deviation.

Experiment: protein stability index of a GFP-peptide fusion (GPS, HEK-293T) (PSI 1-6); higher = more stable
Conditions: c terminus: a fixed tail appended
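Further: 24-mer peptide tiles fused after GFP, lentivirally expressed, FACS-sorted into six equal bins by GFP/DsRed ratio, decoded by Illumina sequencing, PSI is the read-weighted mean bin number.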

Row | Sequence | protein stability index (treatment: DMSO) | protein stability index (treatment: MLN4924 1 uM, 8 h)
1 | VLCGVVMDRSLVQDAPLSDCTETI [ADD1] | 3.11 ± 0.27 | 2.99 ± 0.41
2 | VLETKWELLQQLDLNNCKNNLEPI [KRT71] | 3.2 ± 0.17 | 3.17 ± 0.29
3 | VLLIKDRTSKSRGFAFITFENPAD [RBMY1A1] | 2.83 ± 0.88 | 3.06 ± 1.5
4 | VLMWTMLFLGQGIQVSLYCQEWYA [SOAT2] | 2.87 ± 0.36 | 3.3 ± 0.6
5 | VLPEDRILREELQKQRLREILEQQ [ZNF277] | 4.63 ± 0.4 | 4.21 ± 0.41
6 | VLQHVRLPLLSPKFLVGTVGSDPL [KLHL20] | 2.22 ± 0.28 | 2.13 ± 0.1
7 | VMSIPDVIRLKQEQHVHNEKSVLK [PRKX] | 4.18 ± 0.15 | 4.25 ± 0.12
8 | VNEMCPNITRIYNIGKSHQGLKLY [CPXM2] | 2.52 ± 0.35 | 2.57 ± 0.5
9 | VNLEEIPGEGLLISWAFTDRPDLS [C2CD2L] | 2.14 ± 0.15 | 2.08 ± 0.23
10 | VPQALSATTYKHGVLTRKTHADMD [PSD2] | 4.47 ± 0.18 | 4.56 ± 0.12
11 | VPVPPAAAPPPPATPIVPVVPPTP [BRD3] | 4.75 ± 0.43 | 4.75 ± 0.16
12 | VQDWYHFHYVDILALLPAAWEDSH [SCNN1D] | 2.77 ± 0.61 | 2.67 ± 0.67
13 | VQELLPAACLLQLKGVKQACCEFL [KLHL12] | 2.27 ± 0.28 | 1.81 ± 0.37
14 | VQEMRNKIREQNLQDIKTAGPQSQ [ADD1] | 4.98 ± 0.34 | 5.1 ± 0.1
15 | VQTEDQYQFSYRAALEYLGSFDHY [PTPRD] | 2.22 ± 0.26 | 2.51 ± 0.22
16 | VRGLLASLFAFKSFRENWQRAWVR [C2CD2L] | 2.3 ± 0.59 | 2.61 ± 0.28
17 | VRRGLAGATTLGDMIYVSGGFDGS [KLHL12] | 2.94 ± 0.56 | 2.87 ± 0.15
18 | VSDRLAPGAPRGNPPKASAAPDCT [MYCL] | 4.94 ± 0.22 | 4.95 ± 0.19
19 | VSGLDSSYLREQMLNEPLVREIVK [GAN] | 3.14 ± 0.26 | 2.96 ± 0.25

Row | Sequence | protein stability index (treatment: DMSO) | protein stability index (treatment: MLN4924 1 uM, 8 h)
20 | VSLGATGGPPAGPGGVYAGPEPPP [JUNB] | 4.61 ± 0.094 | 4.46 ± 0.31
21 | VSVNAQTLDGRTPLHLAAQRGHYR [RIPK4] | 3.76 ± 0.29 | 3.77 ± 0.58
22 | VTSNGSIGRDPPAETQPQNPPAQP [CLPTM1] | 5.41 ± 0.27 | 5.41 ± 0.15
23 | VVETINAAIGVTTSPVLPSLIQLL [HACD3] | 2.89 ± 0.74 | 2.81 ± 0.4
24 | VVLLQGAELLLAARLLGALAARSG [TSPAN10] | 3.52 ± 0.57 | 2.76 ± 0.59
25 | VVLSDGPALHPAHAPQISYTGPSS [NCK2] | 3.13 ± 0.37 | 3.38 ± 0.17
26 | VWVTHEEMETLETSTKTDSEEGSW [PPFIA4] | 4.19 ± 0.29 | 4.68 ± 0.22
27 | WDLRMKLHDRGAQVIHPQEFRRWR [DNAAF3] | 2.77 ± 0.35 | 3.02 ± 0.28
28 | WGYIRYSGQYRELGGAIDFGAAYV [ATL3] | 2.56 ± 0.68 | 2.53 ± 0.69
29 | WIKEEAAERYLYFPNWAMALLITL [SLC6A17] | 2.67 ± 0.79 | 2.81 ± 0.57
30 | WKYALDMQQSNLDPLSPMTASSLL [FEM1C] | 2.68 ± 0.19 | 2.84 ± 0.42
31 | WMEVLVLGVAQRSLPLQDELAFAE [ESRRA] | 3.47 ± 0.63 | 2.64 ± 0.97
32 | WRKRFRPREHHGRGGMLSASAETL [PPFIA4] | 3.15 ± 0.22 | 3.26 ± 0.056
33 | WSLYPSDSQVSEEVKTRHSEKSQR [CHGB] | 4.78 ± 0.17 | 4.8 ± 0.19
34 | WYVCRTQGVEGDHCVTSDPATSPL [TRIM35] | 3.15 ± 0.18 | 2.98 ± 0.29
35 | YADHNYGARPPPTPPASPPPSVLI [KMT2E] | 3.06 ± 0.32 | 3.34 ± 0.4
36 | YALRAYLGYQAVPSGSSGSLSTSS [CEBPB] | 2.23 ± 0.28 | 2.36 ± 0.3
37 | YDTFHTVADMMYFCQMLAVVETIN [HACD3] | 3.08 ± 0.35 | 3.17 ± 0.64
38 | YEEEFDYETESETESEIESETDFE [GNAS] | 5.12 ± 0.24 | 5.11 ± 0.16

Row | Sequence | protein stability index (treatment: DMSO) | protein stability index (treatment: MLN4924 1 uM, 8 h)
39 | YETKYVVLSYLGLLSQEKLQEQHL [BCL2L13] | 2.63 ± 0.49 | 2.62 ± 0.46
40 | YFSQVPVLASFILDDGEIDEIRWK [IQUB] | 2.25 ± 0.72 | 2.22 ± 0.28
41 | YGRFIRWLNKEKGIFKIEDSAQVA [SPDEF] | 2.37 ± 0.35 | 2.48 ± 0.2
42 | YGSIHGPTDYQVNIQIIEYEKKQT [BTBD1] | 2.96 ± 0.48 | 3.28 ± 0.33
43 | YHRRHNPKTNEDFEFLYNALEFWR [IQUB] | 1.86 ± 0.36 | 2.61 ± 0.82
44 | YIIQQGGWGTVFSLESEEEEYPGI [BCL2L13] | 2.46 ± 0.36 | 2.9 ± 0.36
45 | YLQDHEKKLRLVFKSLDKKNDGRI [SLC25A25] | 3.3 ± 0.13 | 3.43 ± 0.41
46 | YLRKGRGETRICKIYDSPCLPEAE [RAD51] | 3.65 ± 0.22 | 3.83 ± 0.28
47 | YNMAPSALDSADLPPPSALKKGSK [NFE2L1] | 5.26 ± 0.16 | 5.13 ± 0.3
48 | YPDQSPSEDWTMEERFRPLTFHGL [CLCN6] | 3.23 ± 0.18 | 3.37 ± 0.18
49 | YRCIREARYTMPSSLLAPAKHLIA [PLK2] | 2.56 ± 0.54 | 2.48 ± 0.18
50 | YRLGYFDDALEDFKKVLDLNPGFQ [TTC32] | 2.59 ± 0.2 | 2.41 ± 0.41
51 | YSAPPGDPLSTNYSLAPNTPINQN [NFE2L1] | 4.48 ± 0.27 | 4.54 ± 0.2
52 | YSGTFALIGAAAFLGGVVRMTISL [CLCN6] | 3.78 ± 0.31 | 2.86 ± 0.15
53 | YSIISLLLKDKVRERIQILKTSEV [PTPN9] | 2.9 ± 1.2 | 2.44 ± 0.31
54 | YSPEALASIQNHVRKREAPAPEAE [EFHC1] | 4.92 ± 0.19 | 5.06 ± 0.2
55 | YVDSPALTNIWMARTCAKQNINAP [C22orf31] | 3 ± 0.59 | 2.36 ± 0.24
56 | YVERKNSLKKGSLVKNLKDTLGLG [NCK2] | 2.85 ± 0.34 | 3.13 ± 0.28
57 | YYLCGFCPAELFTNTRSDLDVFGR [LUC7L3] | 2.26 ± 0.25 | 2.04 ± 0.21
